The text below walks through data of PMC7525811 (Molecular Biology of the Cell, 2020).

First the molecules themselves.
B1: MBP-Mek1^NES(E41A) (peptide)
chain: TNLEALQKKLEELALDEQ
B2: MBP-PKI^NESDE (peptide)
chain: NSNELALKLAGLDIDE
B3: MBP-Mek1^NES (peptide)
chain: TNLEALQKKLEELELDEQ
B4: MBP-Smad4^NES (peptide)
chain: YERVVSPGIDLSGLTLQ
B5: MBP-Iκβε^NES (peptide)
chain: {MBP}-SLVLLPFDDLKISG
modifications: reading uncertain
B6: MBP-Iκβα^NES (peptide)
chain: {MBP}-EQMVKELQEIRLEPQ
modifications: reading uncertain
B7: MBP-eIF4E-transporter NES (4E-T^NES) (peptide)
chain: SVEEVEAGLKGLKVDQQVK
B8: MBP-PP2A B56α^NES (peptide)
chain: REELWKKLEELKLKK
B9: MBP-P73^NES (peptide)
chain: NFEILMKLKESLELMELVP
B10: MBP-Paxillin^NES (peptide)
chain: RELDELMASLSDFKFMA
B11: MBP-Dusp6^NES (peptide)
chain: PLPVLGLGGLRISS
B12: MBP-Snupn1^NES (peptide)
chain: MEELSQALASSFSVSQDLNS
B13: MBP-X11L2^NES (peptide)
chain: SSLQELVQQFEALPGDLV
B14: MBP-mDia2^NES (peptide)
chain: SVPEVEALLARLRAL
B15: MBP-Cpeb4^NES (peptide)
chain: RTFDMHSLESSIDIMR
B16: MBP-HIV Rev^NES (peptide)
chain: LQLPPLERLTLDC
B17: MBP-hRio2^NES (peptide)
chain: RSFEMTEFNQALEEIKG

By Kd is commonly meant a measure of binding affinity in units of concentration. The low end stands for higher affinity, the high end for lower affinity.

No end group written: not given here. MBP = not defined here

T1 sequence (O14980 whole entry): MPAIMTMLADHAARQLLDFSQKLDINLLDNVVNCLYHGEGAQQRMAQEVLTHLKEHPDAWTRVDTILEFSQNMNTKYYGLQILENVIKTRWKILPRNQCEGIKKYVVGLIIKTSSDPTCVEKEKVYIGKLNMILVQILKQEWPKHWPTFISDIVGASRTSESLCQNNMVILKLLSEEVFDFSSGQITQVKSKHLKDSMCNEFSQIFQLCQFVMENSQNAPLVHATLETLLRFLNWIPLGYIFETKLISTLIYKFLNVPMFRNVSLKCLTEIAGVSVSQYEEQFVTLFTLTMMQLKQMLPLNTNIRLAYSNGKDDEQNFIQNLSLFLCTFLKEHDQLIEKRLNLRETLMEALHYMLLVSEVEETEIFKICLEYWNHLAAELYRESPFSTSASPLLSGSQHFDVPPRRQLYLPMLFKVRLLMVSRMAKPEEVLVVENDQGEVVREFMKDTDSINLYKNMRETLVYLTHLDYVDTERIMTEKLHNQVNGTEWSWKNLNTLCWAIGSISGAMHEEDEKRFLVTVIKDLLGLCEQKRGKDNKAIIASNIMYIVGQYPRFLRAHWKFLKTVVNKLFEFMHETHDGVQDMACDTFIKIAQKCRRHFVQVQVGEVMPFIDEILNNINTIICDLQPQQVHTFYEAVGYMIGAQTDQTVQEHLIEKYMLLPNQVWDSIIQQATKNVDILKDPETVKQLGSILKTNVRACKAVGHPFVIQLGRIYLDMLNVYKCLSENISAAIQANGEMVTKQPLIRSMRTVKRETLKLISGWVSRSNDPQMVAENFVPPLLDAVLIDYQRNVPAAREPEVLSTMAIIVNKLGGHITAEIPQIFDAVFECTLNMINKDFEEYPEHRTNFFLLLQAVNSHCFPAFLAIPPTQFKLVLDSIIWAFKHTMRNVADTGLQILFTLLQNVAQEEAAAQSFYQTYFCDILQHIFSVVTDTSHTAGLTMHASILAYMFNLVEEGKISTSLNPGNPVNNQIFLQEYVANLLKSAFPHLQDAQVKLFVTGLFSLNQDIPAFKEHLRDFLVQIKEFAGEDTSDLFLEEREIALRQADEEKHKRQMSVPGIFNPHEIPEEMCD

One experiment deals with full-length human CRM1(E571K) (human) (UniProt O14980). Description: differential photobleaching.
full-length human CRM1(E571K) (human), sequence (O14980 whole entry E571K): as the sequence (O14980 whole entry) above, with E571K counted along it
Conditions: not given
In the case of MBP-FMRP1b^NES (peptide), the Kd is 9 µM.

A further experiment concerns the target T1, full-length human CRM1 (wild type) (human, UniProt O14980 1-1071).
Experiment: not given
Conditions: not given
For the molecule B1, the affinity, expressed as Kd, was 0.005 µM.

For a further experiment, the target named is T2, full-length human CRM1(E571K) (human, UniProt O14980 1-1071, E571K).
T2 sequence (O14980 whole entry E571K): as the sequence (O14980 whole entry) above, with E571K counted along it
Experiment: not given
Conditions: not given
On to B2, for which the “fold tighter than to WT CRM1” value worked out at 3 fold.
Regarding B1, the Kd worked out at 0.006 µM.

For another experiment, the target named is T1, full-length human CRM1 (wild type). Description: differential photobleaching.
Conditions: not given
Take B3: the binding result is listed as “binds”.
B4: the binding result was “binds”.

A further experiment deals with CRM1(E571K) (Homo sapiens, UniProt O14980, E571K).
CRM1(E571K), sequence (O14980 whole entry E571K, other chains not shown): as the sequence (O14980 whole entry) above, with E571K counted along it
Experiment: not given
Conditions: from photobleaching Kds. It is filed as binding.
For the molecule REELWKKLEELKLKK [PP2A B56α^NES], the “weaker binding to CRM1(E571K) than to WT CRM1” value is listed as 4–10 fold.
As for RELDELMASLSDFKFMA [Paxillin^NES], the “weaker binding to CRM1(E571K) than to WT CRM1” value is on record as 4–10 fold.
With TNLEALQKKLEELELDEQ [Mek1^NES], the “tighter (stronger) binding to CRM1(E571K) than to WT CRM1” value is on record as 14 fold.

Staying with this experiment, now noted: ratio of Kds from differential photobleaching assays.
In the case of NFEILMKLKESLELMELVP [P73^NES], the “Kd,E571K/Kd,WT” value stood at 0.75.
On to RTFDMHSLESSIDIMR [Cpeb4^NES], for which the “Kd,E571K/Kd,WT” value stood at 3.2.
On the same count and under the same terms, for EQMVKELQEIRLEPQ [Iκβα^NES] the value was 0.95; for SLVLLPFDDLKISG [Iκβε^NES], 3.3.
Consider “Paxillin^NES(K277A) ({MBP}-RELDELMASLSDFAFMA; reading uncertain)”, for which the “Kd,E571K/Kd,WT” value stood at 2.1.
For LQLPPLERLTLDC [HIV Rev^NES], the “Kd,E571K/Kd,WT” value stood at 2.3.
Regarding REELWKKLEELKLKK [PP2A B56α^NES], the “Kd,E571K/Kd,WT” value was found to be 8.6.
SSLQELVQQFEALPGDLV [X11L2^NES]: the “Kd,E571K/Kd,WT” value was 0.87.
Regarding “SVEEVEAGLKGLKVDQQVK [eIF4E-transporter (4E-T^NES)]”, the “Kd,E571K/Kd,WT” value turned out to be 10.
Turning to RELDELMASLSDFKFMA [Paxillin^NES], the “Kd,E571K/Kd,WT” value was 4.6.
On the same count and under the same terms, then MEELSQALASSFSVSQDLNS [Snupn1^NES], with 1.8; and YERVVSPGIDLSGLTLQ [Smad4^NES], with 2.8.
Consider TNLEALQKKLEELELDEQ [Mek1^NES], for which the “Kd,E571K/Kd,WT” value was 0.071.
In the case of SVPEVEALLARLRAL [mDia2^NES], the “Kd,E571K/Kd,WT” value is 0.88.
Regarding LKEVDQLRALERLQID [FMRP1b^NES], the “Kd,E571K/Kd,WT” value was determined as 3.0.
Take RSFEMTEFNQALEEIKG [hRio2^NES]: the “Kd,E571K/Kd,WT” value is 0.79.

The next experiment concerns the target T1, full-length human CRM1 (wild type). The experiment is described as follows: differential photobleaching.
Conditions: not given
This is another data set of the same source.
B5 gave a Kd of 3.6 µM.
For the molecule B6, the Kd came out at 22 µM.
The molecule B7 yielded a Kd of 1.4 µM.
On the same count and under the same terms, for B8 the value was 4.4 µM.

The target in the next experiment is T2, full-length human CRM1(E571K). Description: differential photobleaching.
Conditions: not given
As for B9, the Kd came out at 1.5 µM.
As for B10, the Kd worked out at 3.1 µM.
Same read-out and setting: for B11 the value was 14 µM; for B5, 12 µM.
B12 yielded a Kd of 21 µM.
In turn, B13 showed a Kd of 1.3 µM.
In turn, B6 had a Kd of 21 µM.
Take B3: the Kd stood at 0.005 µM.
Consider B14, for which binding was put at a Kd of 1.5 µM.
Consider B7, for which the affinity, expressed as Kd, was 14 µM.
Turning to B8, the equilibrium dissociation constant (Kd) amounted to 38 µM.
B15 yielded a Kd of 1.9 µM.
Regarding B16, the Kd was 4.1 µM.
B17 showed a Kd of 1.9 µM.
Still for that read-out and setting: then B4, with 13 µM.

For another experiment, the target named is full-length human CRM1 (WT) (Homo sapiens, UniProt O14980).
full-length human CRM1 (WT), sequence (O14980 whole entry, other chains not shown): as the sequence (O14980 whole entry) above
Experiment: not given
It counts as binding. Conditions: from photobleaching Kds.
Take “Mek1^NES(E41A) ({MBP}-TNLEALQKKLEELALDEQ; reading uncertain)”: the “tighter binding to WT CRM1 than the WT Mek1^NES” value is 14 fold.

Another experiment has as its system HEK 293 cells. The experiment is described as follows: Immunostaining and confocal microscopy of endogenous RPS2 with and without LMB. It is filed as cell-based, human. The conditions noted are these: anti-RPS2 immunostaining, presence vs absence of LMB.
On to `CCC(=C/[C@H](C)C/C=C/C(C)=C/[C@@H](C)C(=O)[C@@H](C)[C@H](O)[C@@H](C)C/C(C)=C/C(=O)O)/C=C/[C@@H]1OC(=O)C=C[C@@H]1C` [leptomycin B], for which the “subcellular localization of endogenous RPS2 upon CRM1 inhibition” value is given as “not affected”.

A further experiment addresses full-length human CRM1(E571K) (human) (UniProt O14980). The experiment is described as follows: fluorescence polarisation.
Conditions: not given
(In fluorescence polarisation assays a small probe gives low polarisation when free and higher when bound to something large.)
Molecule “MBP-RPS2^NES (putative NES of 40S ribosomal protein S2) (peptide)” displayed a fold weaker than to WT CRM1 of 16 fold.
